target: human cannabinoid receptor 1 (huCB1), full length, expressed on cells (human, UniProt P21554 1-472); assay: cell-based or functional assay
Sequence (P21554 whole entry): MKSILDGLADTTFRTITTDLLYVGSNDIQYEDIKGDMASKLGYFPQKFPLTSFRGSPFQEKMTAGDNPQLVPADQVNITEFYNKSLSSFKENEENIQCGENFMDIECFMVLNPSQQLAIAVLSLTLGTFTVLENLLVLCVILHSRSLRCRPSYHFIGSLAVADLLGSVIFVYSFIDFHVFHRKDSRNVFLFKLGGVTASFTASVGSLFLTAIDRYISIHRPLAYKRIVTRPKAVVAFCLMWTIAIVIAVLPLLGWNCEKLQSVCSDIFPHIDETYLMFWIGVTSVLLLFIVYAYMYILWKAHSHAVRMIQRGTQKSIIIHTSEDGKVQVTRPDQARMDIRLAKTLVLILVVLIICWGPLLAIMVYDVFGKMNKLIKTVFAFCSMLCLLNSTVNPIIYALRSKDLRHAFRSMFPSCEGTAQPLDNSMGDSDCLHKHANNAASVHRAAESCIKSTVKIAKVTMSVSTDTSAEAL

Binder	Mean IC50 (nM), cAMP antagonist assay [nM]	Mean IC50, -fold vs Rimo [fold vs Rimonabant]	n = 1 IC50 (nM), cAMP antagonist assay [nM]	n = 1 IC50, -fold vs Rimo [fold vs Rimonabant]	n = 2 IC50 (nM), cAMP antagonist assay [nM]	n = 2 IC50, -fold vs Rimo [fold vs Rimonabant]
LIBC527869-1 (antibody, V domains shown) VH: QVQLQESGPGLVKPSQTLSLTCTVSGGNIRRGGDYWAWIRQHPGKGLEWIGHIYHTGKTNYNPSFKGRATISVKTYKNQFSLKLSSVTAADTAVYYCARNYDTLSGNSYYYYGMDVWGQGTTVTVSS VL: DIQLTQSPSTLSASVGDRVTITCRASQSISNYLNWYQQKPGKAPKLLIYAASSLHSGVPSRFSGSGSGTDFTLTISSLQPEDFASYYCQQYQSYPLTFGQGTKVEIKR	47	15.7	57.8	13.7	36.2	20.2
LIBC527879-1 (antibody, V domains shown) VH: QVQLQESGPGLVKPSQTLSLTCTVSGGSIRRGGDYWGWIRQHPGKGLEWIGHIYQSGSTNYNPKLKSRATISVDTYKNQFSLKLSSVTAADTAVYYCARDYDIFTGYSYYYYGMDVWGQGTTVTVSS VL: DIQLTQSPSSLSASVGDRVTITCRASQSIISYLNWYQQKPGKAPKLLIYAASSLRSGVPSRFSGSGSGTDFTLTISSLQPEDFATYYCQQYSNYPLTFGGGTRVEIKR	3.95	1.32	6.12	1.45	1.78	0.99
LIBC527984-1 (antibody, V domains shown) VH: QVQLQESGPGLVKPSQTLSLTCTVSGGSIRRGGDYWSWIRQHPGKGLEWIGHIYQTGKTNYNPNFKSRATISVNTYKNQFSLKLSSVTAADTAVYYCARDYDILTGYSYYYYGMDVWGQGTTVTVSS VL: DIQMTQSPSTLSASVGDRVTITCRASQSISNYLNWYQQKPGKAPKLLIYAASSLHSGVPSRFSGSGSGTDFTLTISSLQPEDFASYYCQQYQSYPLTFGQGTKVEIKR	4.25	1.42	7.24	1.72	1.27	0.71
LIBC523844-1 (antibody, V domains shown) VH: QVQLQESGPGLVKPSQTLSLTCTVSGGSIRRGGDYWSWIRQHPGKGLEWIGHVYYTGSTKYNPSFKDRATISVNTYKNQFSLKLSSVTAADTAVYYCARDYDILTGYSYYYYGMDVWGQGTTVTVSS VL: DIVMTQSPLSLPVTPGEPASISCRSSQSLLSSSGANYVDWYLQKPGQSPQLLIYQGSNRASGVPDRFSGSGSGTDFTLKISRVEAEDVGVYYCRQARALPRTFGQGTKVEIKR	3.83	1.28	6.2	1.47	1.46	0.82
LIBC523868-1 (antibody, V domains shown) VH: QVQLQESGPGLVKPSQTLSLTCTVSGGSIRRGGDYWSWIRQHPGKGLEWIGHVYYEGSTAYNPSFEDRATISVNTYKNQFSLKLSSVTAADTAVYYCARDYDILTGYSYYYYGMDVWGQGTTVTVSS VL: DIVMTQSPLSLPVTPGEPASISCRSSQSLLTSYGINYVDWYLQKPGQSPQLLIYLGSNRASGVPDRFSGSGSGTDFTLKISRVEAEDVGVYYCMQARQIPRTFGQGTKVEIKR	7.59	2.53	11.9	2.81	3.32	1.86
LIBC523969-1 (antibody, V domains shown) VH: QVQLQESGPGLVKPSQTLSLTCTVSGGSIRRGGDYWSWIRQHPGKGLEWIGHIYQTGQTKYNPNLKGRATISVNTYKNQFSLKLSSVTAADTAVYYCARDYDILTGYSYYYYGMDVWGQGTTVTVSS VL: DIVMTQSPLSLPVTPGEPASISCRSSQSLLSSTGANYLDWYLQKPGQSPQLLIYQGSNRASGVPDRFSGSGSGTDFTLKISRVEAEDVGVYYCRQAVGLPRTFGQGTKVEIKR	3.86	1.29	6.45	1.53	1.26	0.7
LIBC523670-1 (antibody, V domains shown) VH: QVQLQESGPGLVKPSQTLSLTCTVSGGSIRRGGDYWAWIRQHPGKGLEWIGHVYQTGQTAYNPNLESRATISVNTYKNQFSLKLSSVTAADTAVYYCARNYDVLSGYSYYYYGMDVWGQGTTVTVSS VL: DIVMTQSPLSLPVTPGEPASISCRSSQSLLTSYGANYLDWYLQKPGQSPQLLIYQGSNRASGVPDRFSGSGSGTDFTLKISRVEAEDVGVYYCMQALQIPRTFGQGTKVEIKR	6.12	2.04	8.72	2.07	3.52	1.97
LIBC523760-1 (antibody, V domains shown) VH: QVQLQESGPGLVKPSQTLSLTCTVSGGSIRRGGDYWSWIRQHPGKGLEWIGHVYQTGSTKYNPKFKGRATISVNTYKNQFSLKLSSVTAADTAVYYCARDYDILTGYSYYYYGMDVWGQGTTVTVSS VL: DIVMTQSPLSLPVTPGEPASISCRSSQSLLTSSGANYVDWYLQKPGQSPQLLIYLGSNRASGVPDRFSGSGSGTDFTLKISRVEAEDVGVYYCRQAVGTPRTFGQGTKVEIKR	4.28	1.43	6.12	1.45	2.44	1.36
LIBC523748-1 (antibody, V domains shown) VH: QVQLQESGPGLVKPSQTLSLTCTVSGGSIRRGGDYWSWIRQHPGKGLEWIGHVYYTGSTKYNPSFEGRATISVKTYKNQFSLKLSSVTAADTAVYYCARDYDILTGYSYYYYGMDVWGQGTTVTVSS VL: not shown	7	2.33	9.57	2.27	4.43	2.48
LIBC523813-1 (antibody, V domains shown) VH: QVQLQESGPGLVKPSQTLSLTCTVSGGSIRRGGDYWSWIRQHPGKGLEWIGHVYYTGQTAYNPKFKDRATISVKTYKNQFSLKLSSVTAADTAVYYCARDYDILTGYSYYYYGMDVWGQGTTVTVSS VL: DIVMTQSPLSLPVTPGEPASISCRSSQSLLSSSGANYVDWYLQKPGQSPQLLIYLGSNRASGVPDRFSGSGSGTDFTLKISRVEAEDVGVYYCMQARGIPRTFGQGTKVEIKR	5.95	1.98	8.96	2.13	2.94	1.64
LIBC523596-1 (antibody, V domains shown) VH: QVQLQESGPGLVKPSQTLSLTCTVSGGSIRRGGDYWSWIRQHPGKGLEWIGHVYQSGQTAYNPNFEDRATISVNTYKNQFSLKLSSVTAADTAVYYCAREYDVVSGYSYYYYGMDVWGQGTTVTVSS VL: DIVMTQSPLSLPVTPGEPASISCRSSQSLLTSSGYNYVDWYLQKPGQSPQLLIYQGSNRASGVPDRFSGSGSGTDFTLKISRVEAEDVGVYYCMQAVKIPRTFGQGTKVEIKR	8.99	–	–	–	4	–
LIBC528131-1 (antibody, V domains shown) VH: QVQLQESGPGLVKPSQTLSLTCTVSGGSIRRGGDYWSWIRQHPGKGLEWIGHIYQTGQTAYNPNLEGRATISVNTYKNQFSLKLSSVTAADTAVYYCARDYDILTGYSYYYYGMDVWGQGTTVTVSS VL: EIVLTQSPATLSLSPGERATLSCRASQSVSSYLGWYQQKPGQAPRLLIYGASSRATGIPDRFSGSGSGTDFTLTISRLEPEDFAVYYCQQYGSSPRTFGQGTKVEIKR	4.23	1.41	6.63	1.57	1.83	1.02
LIBC523862-1 (antibody, V domains shown) VH: QVQLQESGPGLVKPSQTLSLTCTVSGGSIRRGGDYWSWIRQHPGKGLEWIGHIYQTGSTAYNPSLKGRATISVNTYKNQFSLKLSSVTAADTAVYYCARDYDILTGYSYYYYGMDVWGQGTTVTVSS VL: DIVMTQSPLSLPVTPGEPASISCRSSQSLLHSTGANYVDWYLQKPGQSPQLLIYLGSNRASGVPDRFSGSGSGTDFTLKISRVEAEDVGVYYCRQAIALPRTFGQGTKVEIKR	7.31	2.44	11.2	2.66	3.42	1.91
LIBC523857-1 (antibody, V domains shown) VH: QVQLQESGPGLVKPSQTLSLTCTVSGGSIRRGGDYWSWIRQHPGKGLEWIGHIYQTGQTAYNPRLEGRATISVNTYKNQFSLKLSSVTAADTAVYYCARDYDILTGYSYYYYGMDVWGQGTTVTVSS VL: DIVMTQSPLSLPVTPGEPASISCRSSQSLLSSTGANYLDWYLQKPGQSPQLLIYLGSNRASGVPDRFSGSGSGTDFTLKISRVEAEDVGVYYCRQAVELPRTFGQGTKVEIKR	7.94	2.65	13.4	3.18	2.48	1.39
LIBC523603-1 (antibody, V domains shown) VH: QVQLQESGPGLVKPSQTLSLTCTVSGGSIRRGGDYWAWIRQHPGKGLEWIGHVYQSGQTAYNPNFENRATISVNTYKNQFSLKLSSVTAADTAVYYCARDYDAVSGYSYYYYGMDVWGQGTTVTVSS VL: DIVMTQSPLSLPVTPGEPASISCRSSQSLLSSYGNNYVDWYLQKPGQSPQLLIYQGSNRASGVPDRFSGSGSGTDFTLKISRVEAEDVGVYYCRQAVGLPRTFGQGTKVEIKR	4.72	1.57	7.29	1.73	2.16	1.2
